For one molecule, increase in PLA signals after AVPR1A siRNA, % of NT siRNA results are on record in article PMC8224933.

The experiment concerns the target atypical chemokine receptor 3 (human (endogenous in hVSMCs)), P25106. The experiment in a line: proximity ligation; Duolink II PLA on hVSMCs fixed with 4% paraformaldehyde; two primary antibodies from differing species (1:500, 37°C, 105 min); control: omission of one primary antibody; PLA signals per cell counted; cells untreated or incubated 72 h with non-targeting, CXCR4, ACKR3 or AVPR1A siRNA. Conditions: remark: other sources report otherwise.

Sequence of atypical chemokine receptor 3 (human (endogenous in hVSMCs)), P25106 (P25106 whole entry): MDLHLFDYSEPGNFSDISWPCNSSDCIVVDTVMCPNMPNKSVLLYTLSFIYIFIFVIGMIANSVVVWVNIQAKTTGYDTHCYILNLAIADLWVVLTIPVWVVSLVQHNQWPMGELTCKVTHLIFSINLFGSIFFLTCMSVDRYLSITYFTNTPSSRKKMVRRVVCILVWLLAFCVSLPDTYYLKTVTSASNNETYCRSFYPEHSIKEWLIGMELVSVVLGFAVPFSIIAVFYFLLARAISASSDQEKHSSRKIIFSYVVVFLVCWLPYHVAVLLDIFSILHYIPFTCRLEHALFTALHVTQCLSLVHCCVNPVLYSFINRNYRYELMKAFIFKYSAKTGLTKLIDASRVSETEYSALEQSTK

B1: chemokine (C-X-C motif) receptor 4, P61073 1-352 (receptor)
chain: MEGISIYTSDNYTEEMGSGDYDSMKEPCFREENANFNKIFLPTIYSIIFLTGIVGNGLVILVMGYQKKLRSMTDKYRLHLSVADLLFVITLPFWAVDAVANWYFGNFLCKAVHVIYTVNLYSSVLILAFISLDRYLAIVHATNSQRPRKLLAEKVVYVGVWIPALLLTIPDFIFANVSEADDRYICDRFYPNDLWVVVFQFQHIMVGLILPGIVILSCYCIIISKLSHSKGHQKRKALKTTVILILAFFACWLPYYIGISIDSFILLEIIKQGCEFENTVHKWISITEALAFFHCCLNPILYAFLGAKFKTSAQHALTSVSRGSSLKILSKGKRGGHSSVSTESESSSFHSS
For B1, the increase in PLA signals after AVPR1A siRNA, % of NT siRNA was 59%.
